According to patent US20240270854A1 (Stanford University, published 2024):

Experiments:
[1] = biological target: BMPR1a on skeletal stem cells; assay: cell-based or functional assay
[2] = biological target: BMPR2 on skeletal stem cells; assay: cell-based or functional assay
Sequence of BMPR2 on skeletal stem cells (Q13873 whole entry): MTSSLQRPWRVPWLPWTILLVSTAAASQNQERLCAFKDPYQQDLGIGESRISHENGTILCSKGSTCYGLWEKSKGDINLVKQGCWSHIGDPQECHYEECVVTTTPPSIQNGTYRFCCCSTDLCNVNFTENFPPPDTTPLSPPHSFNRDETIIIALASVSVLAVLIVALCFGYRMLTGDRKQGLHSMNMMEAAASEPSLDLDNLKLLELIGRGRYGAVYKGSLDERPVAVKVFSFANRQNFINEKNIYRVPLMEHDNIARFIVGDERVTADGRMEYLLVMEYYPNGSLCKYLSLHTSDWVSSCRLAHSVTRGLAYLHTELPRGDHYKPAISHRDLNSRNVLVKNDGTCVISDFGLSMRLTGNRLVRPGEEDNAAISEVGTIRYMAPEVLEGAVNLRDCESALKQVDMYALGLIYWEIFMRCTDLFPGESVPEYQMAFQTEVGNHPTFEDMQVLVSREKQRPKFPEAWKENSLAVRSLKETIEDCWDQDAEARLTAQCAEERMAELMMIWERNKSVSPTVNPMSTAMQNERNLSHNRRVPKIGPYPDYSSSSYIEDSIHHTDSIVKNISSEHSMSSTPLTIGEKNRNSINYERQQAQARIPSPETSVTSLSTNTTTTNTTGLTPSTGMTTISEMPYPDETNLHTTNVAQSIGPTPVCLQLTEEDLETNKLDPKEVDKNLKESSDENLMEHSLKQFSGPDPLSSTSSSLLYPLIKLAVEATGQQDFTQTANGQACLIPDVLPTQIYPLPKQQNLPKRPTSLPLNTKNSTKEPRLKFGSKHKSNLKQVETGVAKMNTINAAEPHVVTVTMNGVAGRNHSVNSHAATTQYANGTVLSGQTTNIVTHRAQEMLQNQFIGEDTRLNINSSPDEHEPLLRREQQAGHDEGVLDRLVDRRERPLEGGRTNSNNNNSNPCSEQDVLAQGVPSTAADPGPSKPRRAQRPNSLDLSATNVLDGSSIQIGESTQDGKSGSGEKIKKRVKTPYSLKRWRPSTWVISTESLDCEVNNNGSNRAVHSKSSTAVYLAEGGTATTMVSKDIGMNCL

Sequence of BMPR1a on skeletal stem cells (P36894 whole entry): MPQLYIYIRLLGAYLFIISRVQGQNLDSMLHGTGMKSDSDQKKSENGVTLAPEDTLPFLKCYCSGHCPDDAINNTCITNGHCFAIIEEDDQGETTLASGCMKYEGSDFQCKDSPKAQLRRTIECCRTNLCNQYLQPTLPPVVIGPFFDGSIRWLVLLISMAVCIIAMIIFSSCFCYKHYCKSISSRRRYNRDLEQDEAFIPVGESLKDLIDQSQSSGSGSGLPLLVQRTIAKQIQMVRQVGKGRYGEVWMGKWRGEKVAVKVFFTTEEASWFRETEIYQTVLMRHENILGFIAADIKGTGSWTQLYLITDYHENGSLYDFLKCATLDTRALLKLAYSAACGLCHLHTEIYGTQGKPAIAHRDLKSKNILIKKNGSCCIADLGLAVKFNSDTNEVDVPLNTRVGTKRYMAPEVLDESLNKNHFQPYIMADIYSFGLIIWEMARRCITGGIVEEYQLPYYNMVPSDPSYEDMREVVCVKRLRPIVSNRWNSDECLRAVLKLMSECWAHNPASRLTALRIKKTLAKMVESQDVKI

- p-smad1/5 signaling in SSCs after 30 minutes treatment [1]: 3 folds higher activation than control
- p-smad1/5 signaling in SSCs after 30 minutes treatment [2]: 3 folds higher activation than control
B1: (NB1-4)-(NB2-43) (bispecific antibody)
chain: QVQLQESGGGLVQAGGSLRLSCAASGTIFYFSIMGWYRQAPGKEREFVAGIGVGSNTYYADSVKGRFTISRDNAKNTVYLQMNSLKPEDTAVYYCAAFDSISGELQYWGQGTQVTVSSGGGGSGGGQVQLQESGGGLVQAGGSLRLSCAASGSISSATVMGWYRQAPGKEREFVAAITAGGTTNYADSVKGRFTISRDNAKNTVYLQMNSLKPEDTAVYYCAVVVFTSQDRIYYYRYWGQGTQVTVSS
